# Results published in paper PMC11963670.
# Key:
# [1] = target: RHDV GI.2 P domain loop-swap mutant L5´ (loop 5 of GI.1b), His-tagged MBP fusion (rabbit hemorrhagic disease virus GI.2 (isolate N-11)); assay: native gel or EMSA; nondenaturing PAGE of the MBP-P domain fusions, western blot with an anti-His tag monoclonal antibody; monomer band (calculated 85 kDa) and a slower band of the dimer
# [2] = target: RHDV GI.2 P domain loop-swap mutant L4´L5´ (loops 4 and 5 of GI.1b), His-tagged MBP fusion (rabbit hemorrhagic disease virus GI.2 (isolate N-11)); assay: as above
# [3] = target: RHDV GI.2 P domain loop-swap mutant L3´ (loop 3 of GI.1b), His-tagged MBP fusion (rabbit hemorrhagic disease virus GI.2 (isolate N-11)); assay: as above
# [4] = target: RHDV GI.2 P domain loop-swap mutant L1´L4´ (loops 1 and 4 of GI.1b), His-tagged MBP fusion (rabbit hemorrhagic disease virus GI.2 (isolate N-11)); assay: as above
# [5] = target: RHDV GI.2 P domain mutant N387A, MBP fusion (rabbit hemorrhagic disease virus GI.2 (isolate N-11)); assay: native gel or EMSA; PAGE under denaturing or native conditions of the MBP-P domain point mutants; monomer and homodimer bands; BSA as negative control
# [6] = target: RHDV GI.2 P domain loop-swap mutant L4´ (loop 4 of GI.1b), His-tagged MBP fusion (rabbit hemorrhagic disease virus GI.2 (isolate N-11)); assay: native gel or EMSA; nondenaturing PAGE of the MBP-P domain fusions, western blot with an anti-His tag monoclonal antibody; monomer band (calculated 85 kDa) and a slower band of the dimer
# [7] = target: RHDV GI.1b P domain of VP60, MBP fusion (rabbit hemorrhagic disease virus GI.1b (isolate RHDV-Ast89)); assay: as above
# [8] = target: RHDV GI.2 P domain loop-swap mutant L1´ (loop 1 of GI.1b), His-tagged MBP fusion (rabbit hemorrhagic disease virus GI.2 (isolate N-11)); assay: as above
# [9] = target: RHDV GI.2 P domain loop-swap mutant L2´ (loop 2 of GI.1b), His-tagged MBP fusion (rabbit hemorrhagic disease virus GI.2 (isolate N-11)); assay: as above
# [10] = target: RHDV GI.2 P domain mutant N387D, MBP fusion (rabbit hemorrhagic disease virus GI.2 (isolate N-11)); assay: native gel or EMSA; PAGE under denaturing or native conditions of the MBP-P domain point mutants; monomer and homodimer bands; BSA as negative control
# [11] = target: RHDV GI.2 wild-type P domain of VP60 (isolate N-11), His-tagged MBP fusion (rabbit hemorrhagic disease virus GI.2 (isolate N-11)); assay: native gel or EMSA; nondenaturing PAGE of the MBP-P domain fusions, western blot with an anti-His tag monoclonal antibody; monomer band (calculated 85 kDa) and a slower band of the dimer
# [12] = target: RHDV GI.2 P domain loop-swap mutant L1´L4´L5´ (loops 1, 4 and 5 of GI.1b), His-tagged MBP fusion (rabbit hemorrhagic disease virus GI.2 (isolate N-11)); assay: as above
substance,measurement,setting,value
"RHDV GI.2 P domain loop-swap mutant L5´ (loop 5 of GI.1b), His-tagged MBP fusion (domain or fragment)",stoichiometry N,[1],2
"RHDV GI.2 P domain loop-swap mutant L4´L5´ (loops 4 and 5 of GI.1b), His-tagged MBP fusion (domain or fragment)",stoichiometry N,[2],2
"RHDV GI.2 P domain loop-swap mutant L3´ (loop 3 of GI.1b), His-tagged MBP fusion (domain or fragment)",stoichiometry N,[3],2
"RHDV GI.2 P domain loop-swap mutant L1´L4´ (loops 1 and 4 of GI.1b), His-tagged MBP fusion (domain or fragment)",stoichiometry N,[4],2
"RHDV GI.2 P domain mutant N387A, MBP fusion (domain or fragment)",stoichiometry N,[5],2
"RHDV GI.2 P domain loop-swap mutant L4´ (loop 4 of GI.1b), His-tagged MBP fusion (domain or fragment)",stoichiometry N,[6],2
"RHDV GI.1b P domain of VP60, MBP fusion (domain or fragment)",stoichiometry N,[7],2
"RHDV GI.2 P domain loop-swap mutant L1´ (loop 1 of GI.1b), His-tagged MBP fusion (domain or fragment)",stoichiometry N,[8],2
"RHDV GI.2 P domain loop-swap mutant L2´ (loop 2 of GI.1b), His-tagged MBP fusion (domain or fragment)",stoichiometry N,[9],2
"RHDV GI.2 P domain mutant N387D, MBP fusion (domain or fragment)",stoichiometry N,[10],2
"RHDV GI.2 wild-type P domain of VP60 (isolate N-11), His-tagged MBP fusion (domain or fragment)",stoichiometry N,[11],2
"RHDV GI.2 P domain loop-swap mutant L1´L4´L5´ (loops 1, 4 and 5 of GI.1b), His-tagged MBP fusion (domain or fragment)",stoichiometry N,[12],2
